Experimental data reported in paper PMC3167946 (Vaccine, 2011).

Target: Envelope glycoprotein gp120Bal (HIV-1 isolate BaL (subtype B), clone …, UniProt Q6TAP7, strain)
Assay: ELISA

B1: human mature b12 scFv (scFv, V domains shown)
VH: QVQLVQSGAEVKKPGASVKVSCQASGYRFSNFVIHWVRQAPGQRFEWMGWINPYNGNKEFSAKFQDRVTFTADTSANTAYMELRSLRSADTAVYYCARVGPYSWDDSPQDNYYMDVWGKGTTVIVSS
VL: EIVLTQSPGTLSLSPGERATFSCRSSHSIRSRRVAWYQHKPGQAPRLVIHGVSNRASGISDRFSGSGSGTDFTLTITRVEPEDFALYYCQVYGASSYTFGQGTKLERK
For B1, the EC50 was 300 pM.
